In the supplement of paper PMC9170038:

Experiments:
[1] = test system: MS2 coat protein; assay: apparent KD of MS2 coat protein; higher = weaker reporter binding; settings: Eterna round: R107
Experimental: (§1)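 RNA-MaP round R107: designed RNA switches with theophylline, tryptophan, arginine or FMN aptamers are transcribed on-chip within common flanks. They are titrated with SNAP-549-labelled MS2 coat protein in RNA-MaP buffer (100 mM Tris pH 7.5, 80 mM KCl, 4 mM MgCl2), without ligand or with the indicated ligand. Median apparent KD per design.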

[2] = test system: K4 kissing-loop RNA reporter; assay: apparent KD of K4 kissing-loop reporter; higher = weaker reporter binding; settings: Eterna round: R107;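 also: bound reporter read as fluorescence of individual clusters on recovered sequencing chips by microscopy, with normalized cluster intensities fitted with a binding model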
Experimental: as §1, with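 “a labelled K4 kissing-loop RNA reporter” for “SNAP-549-labelled MS2 coat protein”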

[3] = input ligand: theophylline 20 uM
[4] = input ligand: theophylline 2 mM
[5] = input ligand: tryptophan 2.4 mM

Row | Sequence | apparent KD of MS2 coat protein ([1]; input ligand: arginine 13.2 mM) | apparent KD of MS2 coat protein ([1]; input ligand: none) | apparent KD of MS2 coat protein [1, 3] | apparent KD of MS2 coat protein [1, 4] | apparent KD of MS2 coat protein [1, 5] | apparent KD of K4 kissing-loop reporter ([2]; input ligand: FMN 200 uM) | apparent KD of K4 kissing-loop reporter ([2]; input ligand: arginine 13.2 mM) | apparent KD of K4 kissing-loop reporter ([2]; input ligand: none) | apparent KD of K4 kissing-loop reporter [2, 3] | apparent KD of K4 kissing-loop reporter [2, 5]
1 | AAAAUCCUACCUGAGGAUCACCCUGGUGAAGGAGCGCCCGAAAGGGCAGGUAGGUCGCACCUGAGGAUCACCCUGGUACCUAAAA [ArgAX 29 #DoubleMs2 #OpenEnded #AlternativeMS2] | 82.6 nM | 70.6 nM | 57.4 nM | 48.3 nM | 61.8 nM | – | – | – | – | –
2 | AAAAUCCUAUCUGAGGAUCACCCAGGUGAAGGAGCGCCCGAAAGGGCAGGUAGGUCGCACCUGAGGAUCACCCUGGUAAACCUAA [ArgEX 21 #DoubleMS2 #OpenEnded] | 68.8 nM | 76.7 nM | 76.3 nM | 90.6 nM | 65.4 nM | – | – | – | – | –
3 | AAAAUCCUCCAUGAGGAUCACCCAUGGGAAGGAGCGCCCGAAAGGGCAGGUAGGUCGCCCAUGAGGAUCACCCAUGGAACCUAAA [ArgAX 26 #DoubleMS2 #OpenEnded #AlternativeMS2] | 43.7 nM | 56.5 nM | 112 nM | 118 nM | 43.5 nM | – | – | – | – | –
4 | AAACAACAUGAGGAUCACCCAUGUACCGAUACCAGCCAAAUAUAAGGCCCUUGGCAGCGGAGUAAAUCCGGAGGACAAUGGGUAA [Same State Theophylline A GF5] | 8.62 nM | 39 nM | 39.2 nM | 76.9 nM | 28.3 nM | – | – | – | – | –
5 | AAACAUGAGGAUCACCCAUGUAUGUUAUUACGAGGACCGGUACGGCCGCCACUCGAUAGAGUAGAAGUAAAUUGUAAUUCAUGUU [JR_ExcTryptoA_Sub017] | 19.3 nM | – | 18.8 nM | 16.9 nM | – | – | – | – | – | –
6 | AAACAUGAGGAUCACCCAUGUGGAACCGAAGGAGCGGCGCACAUGCCAGGUAGGUCGCGGGACAUGAGGACAUGAGGAUCACCCA [Same State Arginine A 3] | 45.1 nM | 135 nM | 207 nM | 184 nM | 134 nM | – | – | – | – | –
7 | AAACGCCACGGAAGGAGCGACAUGAGGAUCACCCAUGUAGUUUUGGCGGAUGCACCCUCCUGUCAGGUAGGUCGCCGUGCGAUAA [XArg-B26] | 32.6 nM | 35.8 nM | 71.8 nM | 68.5 nM | 33.4 nM | – | – | – | – | –
8 | AAACGUUGCUGCGAUACCAGACAUGAGGAUCACCCAUGUACCAAGGUAAGAAAAUAACAUGUCCCUUGGCAGCGCAGCAACGAAA [MAT - Exclusion Theophlline B - Mod of Eli - D3] | 17.5 nM | – | 43.6 nM | – | 15.6 nM | – | – | – | – | –
9 | AAAGAUCGGAAACGAUCGGCGGCUUGGGCGCGAGGACCGGUACGGCCGCCACUCGGGAAACAUGAGGAUCACCCAUGUUGCUAGC [ETA NP+V+V2 #15] | 12.3 nM | – | 18.4 nM | 16.8 nM | – | – | – | – | – | –
10 | AAAUAAAUCACAUGAGGAUCACCCAUGGAUACCAGGCCUGGAAACAGCCCUUGGCAGCCACAUGAGGAUCACCCAUGUGCUAAUA [MAT - Exclusion Theophlline A - Mod of Eli - D1] | 89.8 nM | – | 194 nM | – | 152 nM | – | – | – | – | –
11 | AACACAUGAGGAUCACCCAUGUCCAUGUACCGAGGACCGGUACGGCCGCCACUCGACAUGAGGAUCACCCAUGUUCCAUGUUGUC [Same State Tryptophan A 3] | 76 nM | – | 131 nM | 146 nM | – | – | – | – | – | –
12 | AACAUGAGGACGGAUACCAGUCACAUGAGGAUCACCCAUGUACAUGAGGAUCACCCAUGUGGCCCUUGGCAGCCGCAUGUGAUCA [Exclusion Theophylline B 4] | 124 nM | – | 308 nM | – | 412 nM | – | – | – | – | –
13 | AACAUGAGGAUCACCCAUGUGUCCUCGAAACGAGGACCGGUACGGCCGCCACUCGAAUAAGGUGUUGACGAAAAGUCAGCACCAA [Mat - Exclusion - Trytophan A - D17] | 111 nM | – | 314 nM | 338 nM | – | – | – | – | – | –
14 | AACAUGAGGAUCACCCAUGUUUUAUGGGAUACCAGAGACGAAAGUCUCCCUUGGCAGCCCAAGCUGCUCCAUACGAAAGUAUGGU [Theophylline A 17] | 16 nM | – | 18.2 nM | – | 16.6 nM | – | – | – | – | –
15 | AACAUGUGGAUCACCCAUGUAUGUUCUGAAGGAGCGCCACAUGAGGCAGGUAGGUCGCAGGUACAUGAGGAUCACCCAUGUGUCA [Exclusion Arginine A 4] | 54.5 nM | 192 nM | 111 nM | 193 nM | 158 nM | – | – | – | – | –
16 | AACCGAGGCUAUCCUCUAAGAAAAUGUGAUACCAGAAUAAUUUUAUUCCCUUGGCAGCAUGACAUGAGGAUCACCCAUGUGUCUU [SSTheo A #6] | 73.6 nM | – | 131 nM | – | 138 nM | – | – | – | – | –
17 | AACCGAGGCUAUCCUCUAAGACUAUGUGAUACCAGAAUAAUUUUAUUCCCUUGGCAGCAUGACAUGAGGAUCACCCAUGUCUCUU [SSTheo A #8] | 21 nM | – | 27.4 nM | – | 26 nM | – | – | – | – | –
18 | AAGACAUGAGGAUCACCCAUGUGGAGGGAUACCAGCCUGUGUGUGGGCCCUUGGCAGCUUAAAUUUAAUUUAAUUAAAUAAAUUU [Same State - Theophylline A] | 27.6 nM | – | 41.6 nM | – | 34.9 nM | – | – | – | – | –
19 | AAGACGGUCGGAAGGAGCGGUACAUGAGGAUCACCCAUGUACUCCUGGGCAUCCGUAGUGUGCCAGGUAGGUCGCCGAUUGCGGG [XArg-B14] | 12.8 nM | 12.8 nM | 22.9 nM | 16.6 nM | 15.3 nM | – | – | – | – | –
20 | AAGCCCAGGACGGCCGCCACUGUAAAAUGGUGGUUCGCCUGUAAGAACAUGAGGAUCACCCAUGUCAGGACCGGGUCCACGAGUU [theeternabot_exclusion_MS2_Trp_B_46] | 17.1 nM | – | 23.8 nM | 15.8 nM | – | – | – | – | – | –
21 | UUCUACGAGUGAUGUUCGUAGUGUAUUCACUAGGAUAUCGUUUUUUCGAGAAGGAGUGAGGAAGUGAUACGAAAGUAUCGCUUCC [FMN A 15] | – | – | – | – | – | 192 nM | 353 nM | 431 nM | 361 nM | 378 nM
